Test results from patent publication US20250326865A1, “C-MET PROTEIN-BINDING PEPTIDE COMPLEX” (PeptiDream Inc., priority 2021, published 2025).
Starred links: 1 amine or outer side, 2 acyl side, 3 side chain; linkers in the order of their positions; H or OH if unused. Positions of bridges follow the written chain, without caps; N, C: chain ends. Non-standard residues stand in square brackets, D forms with d. Chains are numbered I, II in the order given. No end group written: not given here. CO(CH2)2(OCH2CH2)17CO = O=C(CCOCCOCCOCCOCCOCCOCCOCCOCCOCCOCCOCCOCCOCCOCCOCCOCCOCCC(=O)[*:2])[*:1]; CO(CH2CH2O)9CH2CH2CO = O=C(CCOCCOCCOCCOCCOCCOCCOCCOCCOCCC(=O)[*:2])[*:1]; PEG12 = NCCOCCOCCOCCOCCOCCOCCOCCOCCOCCOCCOCCOCCC(=O)O; NMeF = CN[C@@H](Cc1ccccc1)C(=O)O; Ahp(2) = CCCCC[C@H](N)C(=O)O; hLys = NCCCCC[C@H](N)C(=O)O; NMeC = CN[C@@H](CS)C(=O)O

B1: Peptide complex No. 20 in Table 4 (peptide SEQ ID NO: 11, GFs_c-Met_0012_6p; linker SEQ ID NO: 35) (peptide)
peptide: {CH2CO}-[NMeF]VYVS[NMeF]DPD[Ahp(2)]PRWS[NMeC]
chain: [PEG12]-Lys-[PEG12]
modifications: thioether I:N-I:15 (inferred); also: homodimer: two cyclic peptides joined by linker PEG12c-K-PEG12c, peptide C-terminus on linker
B2: Peptide complex No. 19 in Table 4 (peptide SEQ ID NO: 9, GFs_c-Met_0012_4p; linker SEQ ID NO: 35) (peptide)
peptide: {CH2CO}-[NMeF]VAVS[NMeF]DDD[Ahp(2)]PRWS[NMeC]
chain: [PEG12]-Lys-[PEG12]
modifications: thioether I:N-I:15 (inferred); also: homodimer: two cyclic peptides joined by linker PEG12c-K-PEG12c, peptide C-terminus on linker
B3: GFs c-Met-0012-PEG12 dimer (peptide SEQ ID NO: 2, GFs_c-Met_0012p; linker SEQ ID NO: 35) (peptide)
peptide: {CH2CO}-[NMeF]VYVS[NMeF]DDD[Ahp(2)]PRWS[NMeC]
chain: [PEG12]-Lys-[PEG12]
modifications: thioether I:N-I:15 (inferred); also: homodimer: two cyclic peptides joined by linker PEG12c-K-PEG12c, peptide C-terminus on linker
B4: Peptide complex No. 21 in Table 4 (peptide SEQ ID NO: 13, GFs_c-Met_0012_8p; linker SEQ ID NO: 35) (peptide)
peptide: {CH2CO}-[NMeF]VYVS[NMeF]DDD[hLys]PRWS[NMeC]
chain: [PEG12]-Lys-[PEG12]
modifications: thioether I:N-I:15 (inferred); also: homodimer: two cyclic peptides joined by linker PEG12c-K-PEG12c, peptide C-terminus on linker
B5: Peptide complex No. 22 in Table 4 (peptide SEQ ID NO: 17, GFs_c-Met_0012_12p; linker SEQ ID NO: 35) (peptide)
peptide: {CH2CO}-[NMeF]VYVS[NMeF]DDD[Ahp(2)]PRWA[NMeC]
chain: [PEG12]-Lys-[PEG12]
modifications: thioether I:N-I:15 (inferred); also: homodimer: two cyclic peptides joined by linker PEG12c-K-PEG12c, peptide C-terminus on linker
B6: Peptide complex No. 18 in Table 4 (peptide SEQ ID NO: 6, GFs_c-Met_0012_1p; linker SEQ ID NO: 35) (peptide)
peptide: {CH2CO}-[NMeF]TYVS[NMeF]DDD[Ahp(2)]PRWS[NMeC]
chain: [PEG12]-Lys-[PEG12]
modifications: thioether I:N-I:15 (inferred); also: homodimer: two cyclic peptides joined by linker PEG12c-K-PEG12c, peptide C-terminus on linker
B7: Peptide complex No. 23 in Table 4 (peptide SEQ ID NO: 9, GFs_c-Met_0012_4p; linker SEQ ID NO: 38) (peptide)
peptide: {CH2CO}-[NMeF]VAVS[NMeF]DDD[Ahp(2)]PRWS[NMeC]
chain: GK[CO(CH2)2(OCH2CH2)17CO]KG
modifications: thioether I:N-I:15 (inferred); also: homodimer of two cyclic peptides joined by linker G-K-cPEG17c-K-G, peptide C-terminus on linker
B8: Peptide complex No. 24 in Table 4 (peptide SEQ ID NO: 9, GFs_c-Met_0012_4p; linker SEQ ID NO: 36) (peptide)
peptide: {CH2CO}-[NMeF]VAVS[NMeF]DDD[Ahp(2)]PRWS[NMeC]
chain: GK[CO(CH2CH2O)9CH2CH2CO]KG
modifications: thioether I:N-I:15 (inferred); also: homodimer of two cyclic peptides joined by linker G-K-cPEG9c-K-G, peptide C-terminus on linker
B9: Peptide complex No. 25 in Table 4 (peptide SEQ ID NO: 22, GFs_c-Met-00014295p; linker SEQ ID NO: 38) (peptide)
peptide: {CH2CO}-[NMeF]EAVS[NMeF]DSD[Ahp(2)]PRWA[NMeC]
chain: GK[CO(CH2)2(OCH2CH2)17CO]KG
modifications: thioether I:N-I:15 (inferred); also: homodimer of two cyclic peptides joined by linker G-K-cPEG17c-K-G, peptide C-terminus on linker

Each binder was assayed against human c-Met protein (human, UniProt P08581 25-1390) (assay: cell-based or functional assay).
Chain of human c-Met protein (P08581 25-1390): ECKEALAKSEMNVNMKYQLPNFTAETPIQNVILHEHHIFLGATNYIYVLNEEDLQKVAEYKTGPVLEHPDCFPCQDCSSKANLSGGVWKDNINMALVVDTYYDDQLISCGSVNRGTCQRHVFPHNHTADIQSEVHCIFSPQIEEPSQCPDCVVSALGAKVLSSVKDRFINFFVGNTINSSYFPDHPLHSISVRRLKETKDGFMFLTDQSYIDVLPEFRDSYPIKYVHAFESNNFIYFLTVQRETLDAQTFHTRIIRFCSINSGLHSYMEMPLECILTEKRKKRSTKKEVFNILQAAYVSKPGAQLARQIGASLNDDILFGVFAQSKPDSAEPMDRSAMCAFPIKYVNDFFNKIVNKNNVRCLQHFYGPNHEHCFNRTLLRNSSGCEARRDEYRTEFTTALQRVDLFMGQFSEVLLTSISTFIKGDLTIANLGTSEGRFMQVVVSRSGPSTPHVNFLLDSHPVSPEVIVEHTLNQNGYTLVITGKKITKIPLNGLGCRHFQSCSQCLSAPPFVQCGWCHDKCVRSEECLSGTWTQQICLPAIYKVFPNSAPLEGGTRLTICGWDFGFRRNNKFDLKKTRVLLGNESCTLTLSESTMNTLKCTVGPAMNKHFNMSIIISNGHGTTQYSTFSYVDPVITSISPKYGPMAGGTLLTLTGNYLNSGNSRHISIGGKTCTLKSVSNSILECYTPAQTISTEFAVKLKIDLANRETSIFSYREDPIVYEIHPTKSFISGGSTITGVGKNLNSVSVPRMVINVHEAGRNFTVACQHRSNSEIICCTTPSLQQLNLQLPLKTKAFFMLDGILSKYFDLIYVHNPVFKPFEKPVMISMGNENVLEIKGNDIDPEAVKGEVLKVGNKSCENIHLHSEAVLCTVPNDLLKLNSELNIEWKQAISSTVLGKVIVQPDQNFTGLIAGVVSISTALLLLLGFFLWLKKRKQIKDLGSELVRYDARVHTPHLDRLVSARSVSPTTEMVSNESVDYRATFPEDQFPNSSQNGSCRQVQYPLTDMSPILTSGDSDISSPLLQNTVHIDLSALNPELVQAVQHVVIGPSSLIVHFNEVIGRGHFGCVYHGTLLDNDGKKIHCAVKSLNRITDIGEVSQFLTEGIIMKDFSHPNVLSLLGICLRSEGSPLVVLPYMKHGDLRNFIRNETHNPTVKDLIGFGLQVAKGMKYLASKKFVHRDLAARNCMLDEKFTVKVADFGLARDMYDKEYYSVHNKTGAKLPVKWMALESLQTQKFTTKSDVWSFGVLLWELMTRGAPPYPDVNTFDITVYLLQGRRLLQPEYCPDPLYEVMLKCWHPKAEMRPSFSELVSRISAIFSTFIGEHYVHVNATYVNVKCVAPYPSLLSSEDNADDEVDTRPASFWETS
With B1 the “C-Met Agonist Activity (C50; nM): phospho-c-Met AlphaLISA, A431 cells” value (“C-Met Agonist Activity (C50; nM)” below) was 2.22 nM.
For B2, the “C-Met Agonist Activity (C50; nM)” value was 1.22 nM.
For B3, the “C-Met Agonist Activity (C50; nM)” value was 0.76 nM.
With B4 the “C-Met Agonist Activity (C50; nM)” value was 2.17 nM.
With B5 the “C-Met Agonist Activity (C50; nM)” value was 2.37 nM.
For B6, the “C-Met Agonist Activity (C50; nM)” value was 1.31 nM.
With B7 the “C-Met Agonist Activity (C50; nM)” value was 0.91 nM.
For B8, the “C-Met Agonist Activity (C50; nM)” value was 1.27 nM.
With B9 the “C-Met Agonist Activity (C50; nM)” value was 0.81 nM.
